According to article PMC5290487:

biological target: MK2 (mitogen-activated protein kinase-activated protein kinase 2), endogenous in COS-1 cells; experiment: co-immunoprecipitation (IP of endogenous MK2, western blot for PDE4A5), quantified; details: COS-1 cell lysates; parent: est. 100; read off a plot

| Substance | percent of parent (% binding of MK2 in Wt IP) |
| --- | --- |
| PDE4A5 (long PDE4A isoform), wild type (from UniProt P54748-1) F141A | 58 |
| PDE4A5 (long PDE4A isoform), wild type (from UniProt P54748-1) F141A; L142A; Y143A | 1.5 |
| PDE4A5 (long PDE4A isoform), wild type (from UniProt P54748-1) L142A | 73 |
| PDE4A5 (long PDE4A isoform), wild type (from UniProt P54748-1) Y143A | 79 |

biological target: MK2 (mitogen-activated protein kinase-activated protein kinase 2), endogenous in COS-1 cells; experiment: as above; details: COS-1 cell lysates; parent: est. 100; read off a plot; remark: another data set of the same source

| Substance | percent of parent (% binding of MK2 in Wt IP) |
| --- | --- |
| PDE4A5 (long PDE4A isoform), wild type (from UniProt P54748-1) F141A; L142A; Y143A | 2 |
| PDE4A5 (long PDE4A isoform), wild type (from UniProt P54748-1) F693A; Q694A; F695A | 63 |
| PDE4A5 (long PDE4A isoform), wild type (from UniProt P54748-1) I654A; L655A; D656A | 88 |
| PDE4A5 (long PDE4A isoform), wild type (from UniProt P54748-1) T698A; L699A; E700A; E701A | 67 |
| PDE4A5 (long PDE4A isoform), wild type (from UniProt P54748-1) W664A; Y665A; H666A; S667A | 80 |
